Among the data in article PMC12013499 are Kd values, retold here.

What all share (assay): EMSA
Holding throughout (settings): EMSA: 0.5 pmol 32P-tRNA, 0-4 uM enzyme, 20 C, 10 min, 18.5% glycerol added, 5% native PAGE; buffer and pH not given (as in cited refs); n = 3

Data set [1] deals with T1, AsuCCA-Hsaβ (Ascaris suum / Homo sapiens chimera).
T1 sequence: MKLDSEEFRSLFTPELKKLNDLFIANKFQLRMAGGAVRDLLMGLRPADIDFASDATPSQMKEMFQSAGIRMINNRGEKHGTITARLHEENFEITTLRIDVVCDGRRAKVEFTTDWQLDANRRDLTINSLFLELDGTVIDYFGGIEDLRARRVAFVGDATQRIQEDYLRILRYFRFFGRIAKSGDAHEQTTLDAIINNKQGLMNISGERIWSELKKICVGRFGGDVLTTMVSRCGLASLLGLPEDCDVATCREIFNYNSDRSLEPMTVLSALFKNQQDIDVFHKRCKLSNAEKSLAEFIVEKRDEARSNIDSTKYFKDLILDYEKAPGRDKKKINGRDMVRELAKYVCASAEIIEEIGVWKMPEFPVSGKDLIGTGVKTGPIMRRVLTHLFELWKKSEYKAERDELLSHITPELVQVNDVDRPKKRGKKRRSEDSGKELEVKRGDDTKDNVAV

Data set [2] deals with T2, RcuCCA (Romanomermis culicivorax).
T2 sequence: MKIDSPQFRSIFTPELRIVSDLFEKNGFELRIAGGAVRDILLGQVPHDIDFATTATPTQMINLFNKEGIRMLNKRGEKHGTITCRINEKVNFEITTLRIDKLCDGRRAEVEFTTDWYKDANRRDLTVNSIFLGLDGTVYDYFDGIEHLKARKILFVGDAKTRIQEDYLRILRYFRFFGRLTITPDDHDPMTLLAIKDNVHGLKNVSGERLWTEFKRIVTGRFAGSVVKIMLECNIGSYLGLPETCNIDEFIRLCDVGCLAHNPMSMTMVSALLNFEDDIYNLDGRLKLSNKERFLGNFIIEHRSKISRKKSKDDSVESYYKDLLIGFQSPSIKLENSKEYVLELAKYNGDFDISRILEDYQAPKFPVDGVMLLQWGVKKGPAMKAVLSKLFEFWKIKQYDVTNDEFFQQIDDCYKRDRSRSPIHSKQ

The subject of data set [3] is T3, HsaCCA-AsuC40 (Homo sapiens / Ascaris suum chimera).
T3 sequence: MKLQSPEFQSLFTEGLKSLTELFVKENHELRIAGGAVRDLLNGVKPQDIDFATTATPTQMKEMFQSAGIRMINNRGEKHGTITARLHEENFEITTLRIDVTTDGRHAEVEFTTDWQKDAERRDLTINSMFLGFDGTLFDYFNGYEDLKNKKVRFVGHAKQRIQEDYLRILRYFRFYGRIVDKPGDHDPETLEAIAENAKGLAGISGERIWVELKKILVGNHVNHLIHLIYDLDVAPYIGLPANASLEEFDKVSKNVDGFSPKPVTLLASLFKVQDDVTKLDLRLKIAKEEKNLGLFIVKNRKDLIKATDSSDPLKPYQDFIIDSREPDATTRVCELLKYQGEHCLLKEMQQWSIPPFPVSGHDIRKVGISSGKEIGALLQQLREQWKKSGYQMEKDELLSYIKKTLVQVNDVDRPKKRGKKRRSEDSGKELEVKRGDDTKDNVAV

The next data set concerns T4, AsuCCA (Ascaris suum).
T4 sequence: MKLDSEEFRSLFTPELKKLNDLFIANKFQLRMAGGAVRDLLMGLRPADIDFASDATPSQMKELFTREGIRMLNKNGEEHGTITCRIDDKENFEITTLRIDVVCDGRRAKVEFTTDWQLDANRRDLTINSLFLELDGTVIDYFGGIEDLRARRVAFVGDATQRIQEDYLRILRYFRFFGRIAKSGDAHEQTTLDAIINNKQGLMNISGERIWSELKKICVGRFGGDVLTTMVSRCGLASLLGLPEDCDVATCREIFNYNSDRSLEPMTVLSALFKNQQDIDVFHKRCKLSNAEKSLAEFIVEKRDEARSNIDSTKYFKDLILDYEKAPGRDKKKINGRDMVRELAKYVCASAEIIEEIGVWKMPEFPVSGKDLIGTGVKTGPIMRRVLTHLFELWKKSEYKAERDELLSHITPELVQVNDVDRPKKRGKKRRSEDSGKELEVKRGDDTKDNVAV

The subject of data set [4] is T5, AsuCCA ΔC40 delC-terminal 40 residues (Ascaris suum).
T5 sequence: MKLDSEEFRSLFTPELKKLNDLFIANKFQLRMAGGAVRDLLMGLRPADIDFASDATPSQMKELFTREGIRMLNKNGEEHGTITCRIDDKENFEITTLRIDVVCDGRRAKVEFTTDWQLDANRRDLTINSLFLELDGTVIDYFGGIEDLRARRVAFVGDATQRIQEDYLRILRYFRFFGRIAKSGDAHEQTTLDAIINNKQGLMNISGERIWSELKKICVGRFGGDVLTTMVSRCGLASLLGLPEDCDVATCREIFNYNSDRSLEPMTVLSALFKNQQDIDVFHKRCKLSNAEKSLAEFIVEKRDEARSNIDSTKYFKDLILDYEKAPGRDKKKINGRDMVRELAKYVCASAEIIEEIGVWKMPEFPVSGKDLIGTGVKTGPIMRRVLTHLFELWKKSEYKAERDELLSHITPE

Broadly, the Kd is the equilibrium constant for the complex coming apart. Low values mean tighter binding, high ones weaker binding. On to Rcu mt-tRNAIle (armless), for which the equilibrium dissociation constant (Kd) in data set [1] amounted to 300 nM; in data set [2], 1400 nM; in data set [3] it was 600 nM; in the data set on AsuCCA (Ascaris suum), 1100 nM.

Turning to Sce tRNAPhe (canonical), the Kd came out at 300 nM in data set [1]; 1700 nM in data set [4]; 1600 nM in data set [2]; 700 nM in data set [3]; 500 nM with AsuCCA (Ascaris suum).
